Laboratory results reported in the Immune Epitope Database (IEDB).

Experiments:
HLA-B*44:02 = assay: IEDB peptide-MHC binding, purified MHC/competitive/radioactivity; filed as Kd, often an IC50 or EC50 that approximates it; ≥ and ≤ were set here for values at or beyond the usual limits of such assays; details: source organism: Dengue virus 1 Brazil/97-11/1997
HLA-B*40:01 = assay: as above
HLA-A*02:01 [1] = assay: as above
HLA-B*15:01 = assay: as above
HLA-B*08:01 = assay: as above
HLA-A*30:01 = assay: as above
HLA-A*02:01 [2] = assay: IEDB peptide-MHC binding, purified MHC/competitive/fluorescence; ≥ and ≤ were set here for values at or beyond the usual limits of such assays
HLA-A*24:02 = assay: as above
HLA-A*02:03 = assay: IEDB peptide-MHC binding, purified MHC/competitive/radioactivity; filed as Kd, often an IC50 or EC50 that approximates it; ≥ and ≤ were set here for values at or beyond the usual limits of such assays
HLA-A*03:01 [3] = assay: as above; details: source organism: Vaccinia virus WR
HLA-A*33:01 = assay: as above; details: source organism: Vaccinia virus WR
HLA-A*31:01 [4] = assay: as above
HLA-A*68:01 = assay: as above; details: source organism: Vaccinia virus WR
HLA-A*11:01 = assay: as above; details: source organism: Vaccinia virus WR
HLA-A*30:02 = assay: as above
HLA-A*26:01 = assay: as above
HLA-A*01:01 [5] = assay: as above
HLA-A*02:01 [6] = assay: IEDB peptide-MHC binding, purified MHC/competitive/fluorescence; filed as Kd, often an IC50 or EC50 that approximates it; ≥ and ≤ were set here for values at or beyond the usual limits of such assays
HLA-A*29:02 = assay: IEDB peptide-MHC binding, purified MHC/competitive/radioactivity; filed as Kd, often an IC50 or EC50 that approximates it; ≥ and ≤ were set here for values at or beyond the usual limits of such assays; details: source organism: Mammarenavirus whitewaterense
HLA-A*32:01 = assay: as above; details: source organism: Mammarenavirus whitewaterense
HLA-A*01:01 [7] = assay: IEDB peptide-MHC binding, purified MHC/direct/fluorescence; filed as Kd, often an IC50 or EC50 that approximates it; ≥ and ≤ were set here for values at or beyond the usual limits of such assays; details: source organism: Influenza A virus (A/Moscow/343/2003(H3N2))
HLA-A*02:06 = assay: IEDB peptide-MHC binding, purified MHC/competitive/radioactivity; filed as Kd, often an IC50 or EC50 that approximates it; ≥ and ≤ were set here for values at or beyond the usual limits of such assays; details: source organism: Homo sapiens
HLA-A*02:02 = assay: as above; details: source organism: Homo sapiens
HLA-A*03:01 [8] = assay: IEDB peptide-MHC binding, purified MHC/direct/fluorescence; filed as Kd, often an IC50 or EC50 that approximates it; ≥ and ≤ were set here for values at or beyond the usual limits of such assays; details: source organism: Brucella melitensis
HLA-A*31:01 [9] = assay: as above; details: source organism: Brucella melitensis
[10] = source organism: Dengue virus 1 Brazil/97-11/1997
[11] = source organism: Dengue virus 2 Jamaica/1409/1983
[12] = source organism: Vaccinia virus WR
[13] = source organism: Vaccinia virus Copenhagen
[14] = source organism: Zaire ebolavirus
[15] = source organism: Dengue virus 4 Philippines/H241/1956
[16] = source organism: Vaccinia virus
[17] = source organism: Dengue virus 3 Martinique/1243/1999
[18] = source organism: Dengue virus 1 Singapore/S275/1990
[19] = source organism: Mammarenavirus whitewaterense
[20] = source organism: Sudan ebolavirus

AEALKGMPI
Kd (HLA-B*44:02): 1.01 nM
Kd (HLA-B*40:01; [10]): 122 nM

CINGVCWTA
Kd (HLA-A*02:01 [1]; source organism: hepatitis C virus genotype 1a): 2700 nM

VMVMVGATM
Kd (HLA-B*15:01; [11]): 2.77 nM

YIRFRKNHI
Kd (HLA-B*08:01; [12]): 1.44 nM
Kd (HLA-B*15:01; [12]): 1010 nM

SLREISNIV
Kd (HLA-B*08:01; [12]): 10.2 nM

SIKMKLVSI
Kd (HLA-B*08:01; [13]): 16.4 nM

KSKNINIEV
Kd (HLA-A*30:01; [12]): 0.324 nM

SNKRHRPIG
Kd (HLA-B*08:01; [12]): 33.5 nM

AWQSVGHMM
IC50 (HLA-A*02:01 [2]; [14]): ≥ 180000 nM
IC50 (HLA-A*24:02; [14]): 34700 nM

KEEYVDYMPV
Kd (HLA-B*40:01; [15]): 68.7 nM

MVRLTTQGL
Kd (HLA-A*30:01; [13]): 8.32 nM

NLNVTTQSI
IC50 (HLA-A*02:01 [2]; [16]): 44700 nM
IC50 (HLA-A*24:02; [16]): 11100 nM

TFKKSGAIK
Kd (HLA-A*30:01; [17]): 1200 nM

GLFGKGSLV
Kd (HLA-A*02:03; [17]): 2.92 nM
Kd (HLA-A*02:01 [1]; source organism: dengue virus type 3): 2.9 nM

ATIQRFSSL
Kd (HLA-B*08:01; [12]): 3.34 nM

MQKFTILEY
Kd (HLA-A*03:01 [3]): 470 nM
Kd (HLA-A*33:01): ≥ 54500 nM
Kd (HLA-B*15:01; [12]): 10.1 nM
Kd (HLA-A*31:01 [4]; [12]): 174 nM
Kd (HLA-A*68:01): 10800 nM
Kd (HLA-A*11:01): 39.8 nM

VLENFTILLV
Kd (HLA-A*02:01 [1]; source organism: Homo sapiens): 527 nM

HTAEAGGRAY
Kd (HLA-A*30:02; [11]): 25.1 nM
Kd (HLA-A*26:01; [11]): 24.6 nM
Kd (HLA-A*01:01 [5]; [11]): ≥ 70400 nM
Kd (HLA-B*15:01; [11]): 115 nM

IMAVGIVSIL
Kd (HLA-B*08:01; [18]): 173 nM
Kd (HLA-B*15:01; [18]): 8.03 nM

KLFSDISAI
Kd (HLA-A*02:01 [6]; [16]): 2.2 nM

DRDINPIVK
IC50 (HLA-A*24:02; [16]): 33500 nM

NIMPLFPTF
Kd (HLA-B*08:01; [12]): 48.1 nM

SLRYSSKVF
Kd (HLA-B*08:01; [12]): 928 nM

YVNHTGFNV
Kd (HLA-A*30:02; [19]): ≥ 76900 nM
Kd (HLA-A*29:02): 2470 nM
Kd (HLA-A*26:01; [19]): ≥ 53600 nM
Kd (HLA-A*01:01 [5]; [19]): 5880 nM
Kd (HLA-A*32:01): ≥ 77800 nM
Kd (HLA-A*30:01; [19]): 1240 nM

RFTPQFLLQ
IC50 (HLA-A*24:02; [14]): 4080 nM

KSKAINVLR
Kd (HLA-A*31:01 [4]; [11]): 1.1 nM
Kd (HLA-A*30:01; [11]): 103 nM

KLHSGVDVFY
Kd (HLA-A*30:02; [15]): 12.1 nM
Kd (HLA-A*01:01 [5]; [15]): 2870 nM
Kd (HLA-B*15:01; [15]): 2.76 nM

DTKIDLWSY
Kd (HLA-A*01:01 [7]): ≥ 20000 nM

GLLEAGNSL
Kd (HLA-A*02:01 [6]; [12]): 3.2 nM

DLEDLKDQI
Kd (HLA-A*02:06): ≥ 78700 nM
Kd (HLA-A*02:02): 16400 nM
Kd (HLA-A*02:03; source organism: Homo sapiens): 13600 nM
Kd (HLA-A*02:01 [1]; source organism: Homo sapiens): ≥ 24300 nM

TTKNGQPRK
Kd (HLA-A*30:01; [12]): 0.233 nM

MVCPNINAF
Kd (HLA-B*15:01; [12]): 22 nM

EDDRERLKV
IC50 (HLA-A*24:02; source organism: Variola virus): 16.8 nM

ALAWSLQML
Kd (HLA-A*02:01 [6]; source organism: Escherichia coli O139:H28 str. E24377A): 3.4 nM

RVRIPDVAR
Kd (HLA-A*03:01 [8]): 293 nM
Kd (HLA-A*31:01 [9]): 23.4 nM

LMALKLITQF
Kd (HLA-B*15:01; [17]): 149 nM

KGKRALAPPV
Kd (HLA-A*30:01; [15]): 2.27 nM

GQITWRDMAH
Kd (HLA-B*15:01; [17]): 153 nM

VLSPTIGHV
Kd (HLA-A*02:01 [6]; [12]): 4 nM

ATGKCNPNL
IC50 (HLA-A*02:01 [2]; [20]): 12300 nM
IC50 (HLA-A*24:02; [20]): ≥ 142000 nM

QLAYVVIGIL
Kd (HLA-B*08:01; [17]): ≥ 10000 nM

IWKVNPEID
IC50 (HLA-A*24:02; [14]): 62100 nM

ESRFTPQFL
IC50 (HLA-A*24:02; [14]): 22400 nM

ISRNKNIFV
Kd (HLA-A*30:01; [12]): 7.28 nM

KEISSMLNIM
Kd (HLA-B*40:01; [10]): 11.1 nM

CRSCTMPPLR
Kd (HLA-A*30:01; [15]): 1530 nM
